From article PMC7889724

Target: T1, recombinant full-length GST-UVR8 (Arabidopsis), Q9FN03
T1 chain: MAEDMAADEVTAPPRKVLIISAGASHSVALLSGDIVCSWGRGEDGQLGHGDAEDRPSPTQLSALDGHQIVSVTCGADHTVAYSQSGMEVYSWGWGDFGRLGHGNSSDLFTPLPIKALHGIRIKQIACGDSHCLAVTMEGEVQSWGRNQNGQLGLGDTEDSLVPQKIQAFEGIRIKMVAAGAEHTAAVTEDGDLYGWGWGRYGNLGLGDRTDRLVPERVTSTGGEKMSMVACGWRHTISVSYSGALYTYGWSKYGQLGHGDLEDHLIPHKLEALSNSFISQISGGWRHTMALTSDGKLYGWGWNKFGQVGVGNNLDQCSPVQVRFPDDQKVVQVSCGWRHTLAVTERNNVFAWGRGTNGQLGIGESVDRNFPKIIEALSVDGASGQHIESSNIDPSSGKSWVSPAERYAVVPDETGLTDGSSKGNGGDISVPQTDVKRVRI
Assay: SDS-PAGE of non-boiled protein
Settings: remark: other sources report otherwise

B1: recombinant full-length GST-UVR8, Q9FN03 1-440 (receptor)
chain: T1 chain
- stoichiometry N: 2
